The values below come from patent publication US12679878B2, “CRF2 receptor agonists and their use in therapy” (SANOFI, priority 2020, dated 2026).

Starred links: 1 amine or outer side, 2 acyl side, 3 side chain; linkers in the order of their positions; H or OH if unused. Non-standard residues stand in square brackets, D forms with d. Groups on a side chain read outwards from the residue. No end group written: not given here. *: point of attachment. C18 diacid = O=C(O)CCCCCCCCCCCCCCCCC(=O)*; γGlu = O=C(O)[C@H](CCC(=O)[*:2])N[*:1]; AEEA = NCCOCCOCC(=O)O; Aib = CC(C)(N)C(=O)O

This assay deals with human corticotropin-releasing factor 2α (CRF2 α receptor) (human), Q13324. The experiment in a line: cell-based or functional assay.
Sequence of human corticotropin-releasing factor 2α (CRF2 α receptor) (human), Q13324 (Q13324 20-411): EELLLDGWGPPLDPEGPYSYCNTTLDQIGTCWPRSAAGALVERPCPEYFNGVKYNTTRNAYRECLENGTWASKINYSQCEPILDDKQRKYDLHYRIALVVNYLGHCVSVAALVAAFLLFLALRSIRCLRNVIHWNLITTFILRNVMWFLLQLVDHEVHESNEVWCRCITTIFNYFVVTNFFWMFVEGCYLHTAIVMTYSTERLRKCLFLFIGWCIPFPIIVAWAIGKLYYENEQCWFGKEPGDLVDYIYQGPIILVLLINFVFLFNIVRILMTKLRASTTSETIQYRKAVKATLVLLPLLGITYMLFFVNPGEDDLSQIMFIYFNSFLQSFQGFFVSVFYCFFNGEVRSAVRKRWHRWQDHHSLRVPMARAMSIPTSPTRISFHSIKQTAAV

B1: SEQ ID NO: 107 (peptide)
peptide: IVLSLDVPIKLK([AEEA-AEEA-γGlu-C18 diacid])QILLKQERQK[Aib]QREQAETNKQILERV-NH2
modifications: N-terminus assumed
SMILES: CC[C@H](C)[C@H](N)C(=O)N[C@H](C(=O)N[C@@H](CC(C)C)C(=O)N[C@@H](CO)C(=O)N[C@@H](CC(C)C)C(=O)N[C@@H](CC(=O)O)C(=O)N[C@H](C(=O)N1CCC[C@H]1C(=O)N[C@H](C(=O)N[C@@H](CCCCN)C(=O)N[C@@H](CC(C)C)C(=O)N[C@@H](CCCCNC(=O)COCCOCCNC(=O)COCCOCCNC(=O)CC[C@H](NC(=O)CCCCCCCCCCCCCCCCC(=O)O)C(=O)O)C(=O)N[C@@H](CCC(N)=O)C(=O)N[C@H](C(=O)N[C@@H](CC(C)C)C(=O)N[C@@H](CC(C)C)C(=O)N[C@@H](CCCCN)C(=O)N[C@@H](CCC(N)=O)C(=O)N[C@@H](CCC(=O)O)C(=O)N[C@@H](CCCNC(=N)N)C(=O)N[C@@H](CCC(N)=O)C(=O)N[C@@H](CCCCN)C(=O)NC(C)(C)C(=O)N[C@@H](CCC(N)=O)C(=O)N[C@@H](CCCNC(=N)N)C(=O)N[C@@H](CCC(=O)O)C(=O)N[C@@H](CCC(N)=O)C(=O)N[C@@H](C)C(=O)N[C@@H](CCC(=O)O)C(=O)N[C@H](C(=O)N[C@@H](CC(N)=O)C(=O)N[C@@H](CCCCN)C(=O)N[C@@H](CCC(N)=O)C(=O)N[C@H](C(=O)N[C@@H](CC(C)C)C(=O)N[C@@H](CCC(=O)O)C(=O)N[C@@H](CCCNC(=N)N)C(=O)N[C@H](C(N)=O)C(C)C)[C@@H](C)CC)[C@@H](C)O)[C@@H](C)CC)[C@@H](C)CC)C(C)C)C(C)C
In turn, B1 had an EC50 [nM], 0% HSA of 0.81 nM and an EC50 [nM], 0.1% HSA of 16.1 nM.

B2: SEQ ID NO: 104 (peptide)
peptide: IVLSLDVPIKLK([AEEA-AEEA-γGlu-C18 diacid])QILLKQERQK[Aib]QREQAETNKQILAQV-NH2
modifications: N-terminus assumed
SMILES: CC[C@H](C)[C@H](N)C(=O)N[C@H](C(=O)N[C@@H](CC(C)C)C(=O)N[C@@H](CO)C(=O)N[C@@H](CC(C)C)C(=O)N[C@@H](CC(=O)O)C(=O)N[C@H](C(=O)N1CCC[C@H]1C(=O)N[C@H](C(=O)N[C@@H](CCCCN)C(=O)N[C@@H](CC(C)C)C(=O)N[C@@H](CCCCNC(=O)COCCOCCNC(=O)COCCOCCNC(=O)CC[C@H](NC(=O)CCCCCCCCCCCCCCCCC(=O)O)C(=O)O)C(=O)N[C@@H](CCC(N)=O)C(=O)N[C@H](C(=O)N[C@@H](CC(C)C)C(=O)N[C@@H](CC(C)C)C(=O)N[C@@H](CCCCN)C(=O)N[C@@H](CCC(N)=O)C(=O)N[C@@H](CCC(=O)O)C(=O)N[C@@H](CCCNC(=N)N)C(=O)N[C@@H](CCC(N)=O)C(=O)N[C@@H](CCCCN)C(=O)NC(C)(C)C(=O)N[C@@H](CCC(N)=O)C(=O)N[C@@H](CCCNC(=N)N)C(=O)N[C@@H](CCC(=O)O)C(=O)N[C@@H](CCC(N)=O)C(=O)N[C@@H](C)C(=O)N[C@@H](CCC(=O)O)C(=O)N[C@H](C(=O)N[C@@H](CC(N)=O)C(=O)N[C@@H](CCCCN)C(=O)N[C@@H](CCC(N)=O)C(=O)N[C@H](C(=O)N[C@@H](CC(C)C)C(=O)N[C@@H](C)C(=O)N[C@@H](CCC(N)=O)C(=O)N[C@H](C(N)=O)C(C)C)[C@@H](C)CC)[C@@H](C)O)[C@@H](C)CC)[C@@H](C)CC)C(C)C)C(C)C
B2 yielded an EC50 [nM], 0% HSA of 0.32 nM.

B3: SEQ ID NO: 108 (peptide)
peptide: IVLSLDVPIKLK([AEEA-AEEA-γGlu-C18 diacid])QILLKQERQK[Aib]QRQKAETNKQILAQV-NH2
modifications: N-terminus assumed
SMILES: CC[C@H](C)[C@H](N)C(=O)N[C@H](C(=O)N[C@@H](CC(C)C)C(=O)N[C@@H](CO)C(=O)N[C@@H](CC(C)C)C(=O)N[C@@H](CC(=O)O)C(=O)N[C@H](C(=O)N1CCC[C@H]1C(=O)N[C@H](C(=O)N[C@@H](CCCCN)C(=O)N[C@@H](CC(C)C)C(=O)N[C@@H](CCCCNC(=O)COCCOCCNC(=O)COCCOCCNC(=O)CC[C@H](NC(=O)CCCCCCCCCCCCCCCCC(=O)O)C(=O)O)C(=O)N[C@@H](CCC(N)=O)C(=O)N[C@H](C(=O)N[C@@H](CC(C)C)C(=O)N[C@@H](CC(C)C)C(=O)N[C@@H](CCCCN)C(=O)N[C@@H](CCC(N)=O)C(=O)N[C@@H](CCC(=O)O)C(=O)N[C@@H](CCCNC(=N)N)C(=O)N[C@@H](CCC(N)=O)C(=O)N[C@@H](CCCCN)C(=O)NC(C)(C)C(=O)N[C@@H](CCC(N)=O)C(=O)N[C@@H](CCCNC(=N)N)C(=O)N[C@@H](CCC(N)=O)C(=O)N[C@@H](CCCCN)C(=O)N[C@@H](C)C(=O)N[C@@H](CCC(=O)O)C(=O)N[C@H](C(=O)N[C@@H](CC(N)=O)C(=O)N[C@@H](CCCCN)C(=O)N[C@@H](CCC(N)=O)C(=O)N[C@H](C(=O)N[C@@H](CC(C)C)C(=O)N[C@@H](C)C(=O)N[C@@H](CCC(N)=O)C(=O)N[C@H](C(N)=O)C(C)C)[C@@H](C)CC)[C@@H](C)O)[C@@H](C)CC)[C@@H](C)CC)C(C)C)C(C)C
The molecule B3 yielded an EC50 [nM], 0% HSA of 0.23 nM.

B4: SEQ ID NO: 109 (peptide)
peptide: IVLSLDVPIKLK([AEEA-AEEA-γGlu-C18 diacid])QILLKQERQK[Aib]QREKAETNKQILAQV-NH2
modifications: N-terminus assumed
SMILES: CC[C@H](C)[C@H](N)C(=O)N[C@H](C(=O)N[C@@H](CC(C)C)C(=O)N[C@@H](CO)C(=O)N[C@@H](CC(C)C)C(=O)N[C@@H](CC(=O)O)C(=O)N[C@H](C(=O)N1CCC[C@H]1C(=O)N[C@H](C(=O)N[C@@H](CCCCN)C(=O)N[C@@H](CC(C)C)C(=O)N[C@@H](CCCCNC(=O)COCCOCCNC(=O)COCCOCCNC(=O)CC[C@H](NC(=O)CCCCCCCCCCCCCCCCC(=O)O)C(=O)O)C(=O)N[C@@H](CCC(N)=O)C(=O)N[C@H](C(=O)N[C@@H](CC(C)C)C(=O)N[C@@H](CC(C)C)C(=O)N[C@@H](CCCCN)C(=O)N[C@@H](CCC(N)=O)C(=O)N[C@@H](CCC(=O)O)C(=O)N[C@@H](CCCNC(=N)N)C(=O)N[C@@H](CCC(N)=O)C(=O)N[C@@H](CCCCN)C(=O)NC(C)(C)C(=O)N[C@@H](CCC(N)=O)C(=O)N[C@@H](CCCNC(=N)N)C(=O)N[C@@H](CCC(=O)O)C(=O)N[C@@H](CCCCN)C(=O)N[C@@H](C)C(=O)N[C@@H](CCC(=O)O)C(=O)N[C@H](C(=O)N[C@@H](CC(N)=O)C(=O)N[C@@H](CCCCN)C(=O)N[C@@H](CCC(N)=O)C(=O)N[C@H](C(=O)N[C@@H](CC(C)C)C(=O)N[C@@H](C)C(=O)N[C@@H](CCC(N)=O)C(=O)N[C@H](C(N)=O)C(C)C)[C@@H](C)CC)[C@@H](C)O)[C@@H](C)CC)[C@@H](C)CC)C(C)C)C(C)C
The molecule B4 returned an EC50 [nM], 0% HSA of 0.95 nM.

B5: SEQ ID NO: 105 (peptide)
peptide: IVLSLDVPIKLK([AEEA-AEEA-γGlu-C18 diacid])QILLEQERQK[Aib]QRQQAETNKQILAQV-NH2
modifications: N-terminus assumed
SMILES: CC[C@H](C)[C@H](N)C(=O)N[C@H](C(=O)N[C@@H](CC(C)C)C(=O)N[C@@H](CO)C(=O)N[C@@H](CC(C)C)C(=O)N[C@@H](CC(=O)O)C(=O)N[C@H](C(=O)N1CCC[C@H]1C(=O)N[C@H](C(=O)N[C@@H](CCCCN)C(=O)N[C@@H](CC(C)C)C(=O)N[C@@H](CCCCNC(=O)COCCOCCNC(=O)COCCOCCNC(=O)CC[C@H](NC(=O)CCCCCCCCCCCCCCCCC(=O)O)C(=O)O)C(=O)N[C@@H](CCC(N)=O)C(=O)N[C@H](C(=O)N[C@@H](CC(C)C)C(=O)N[C@@H](CC(C)C)C(=O)N[C@@H](CCC(=O)O)C(=O)N[C@@H](CCC(N)=O)C(=O)N[C@@H](CCC(=O)O)C(=O)N[C@@H](CCCNC(=N)N)C(=O)N[C@@H](CCC(N)=O)C(=O)N[C@@H](CCCCN)C(=O)NC(C)(C)C(=O)N[C@@H](CCC(N)=O)C(=O)N[C@@H](CCCNC(=N)N)C(=O)N[C@@H](CCC(N)=O)C(=O)N[C@@H](CCC(N)=O)C(=O)N[C@@H](C)C(=O)N[C@@H](CCC(=O)O)C(=O)N[C@H](C(=O)N[C@@H](CC(N)=O)C(=O)N[C@@H](CCCCN)C(=O)N[C@@H](CCC(N)=O)C(=O)N[C@H](C(=O)N[C@@H](CC(C)C)C(=O)N[C@@H](C)C(=O)N[C@@H](CCC(N)=O)C(=O)N[C@H](C(N)=O)C(C)C)[C@@H](C)CC)[C@@H](C)O)[C@@H](C)CC)[C@@H](C)CC)C(C)C)C(C)C
B5: the EC50 [nM], 0% HSA was 0.41 nM and the EC50 [nM], 0.1% HSA amounted to 15.3 nM.

B6: SEQ ID NO: 106 (peptide)
peptide: IVLSLDVPIKLK([AEEA-AEEA-γGlu-C18 diacid])QILLEQERQK[Aib]QREQAETNKQILERV-NH2
modifications: N-terminus assumed
SMILES: CC[C@H](C)[C@H](N)C(=O)N[C@H](C(=O)N[C@@H](CC(C)C)C(=O)N[C@@H](CO)C(=O)N[C@@H](CC(C)C)C(=O)N[C@@H](CC(=O)O)C(=O)N[C@H](C(=O)N1CCC[C@H]1C(=O)N[C@H](C(=O)N[C@@H](CCCCN)C(=O)N[C@@H](CC(C)C)C(=O)N[C@@H](CCCCNC(=O)COCCOCCNC(=O)COCCOCCNC(=O)CC[C@H](NC(=O)CCCCCCCCCCCCCCCCC(=O)O)C(=O)O)C(=O)N[C@@H](CCC(N)=O)C(=O)N[C@H](C(=O)N[C@@H](CC(C)C)C(=O)N[C@@H](CC(C)C)C(=O)N[C@@H](CCC(=O)O)C(=O)N[C@@H](CCC(N)=O)C(=O)N[C@@H](CCC(=O)O)C(=O)N[C@@H](CCCNC(=N)N)C(=O)N[C@@H](CCC(N)=O)C(=O)N[C@@H](CCCCN)C(=O)NC(C)(C)C(=O)N[C@@H](CCC(N)=O)C(=O)N[C@@H](CCCNC(=N)N)C(=O)N[C@@H](CCC(=O)O)C(=O)N[C@@H](CCC(N)=O)C(=O)N[C@@H](C)C(=O)N[C@@H](CCC(=O)O)C(=O)N[C@H](C(=O)N[C@@H](CC(N)=O)C(=O)N[C@@H](CCCCN)C(=O)N[C@@H](CCC(N)=O)C(=O)N[C@H](C(=O)N[C@@H](CC(C)C)C(=O)N[C@@H](CCC(=O)O)C(=O)N[C@@H](CCCNC(=N)N)C(=O)N[C@H](C(N)=O)C(C)C)[C@@H](C)CC)[C@@H](C)O)[C@@H](C)CC)[C@@H](C)CC)C(C)C)C(C)C
In turn, B6 showed an EC50 [nM], 0% HSA of 0.53 nM and an EC50 [nM], 0.1% HSA of 13.2 nM.
